Patent US20250206792

Experiments:
[1] = biological target: T1, Bovine Beta-casein (SEQ ID NO: 3)
T1 chain: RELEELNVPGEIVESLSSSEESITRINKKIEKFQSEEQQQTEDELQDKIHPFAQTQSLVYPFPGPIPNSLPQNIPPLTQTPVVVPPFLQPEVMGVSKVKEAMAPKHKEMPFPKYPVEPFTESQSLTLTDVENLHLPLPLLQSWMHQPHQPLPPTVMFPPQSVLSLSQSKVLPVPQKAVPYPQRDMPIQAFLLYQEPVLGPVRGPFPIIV

[2] = biological target: T2, Bovine Alpha-s1-casein (SEQ ID NO: 1)
T2 chain: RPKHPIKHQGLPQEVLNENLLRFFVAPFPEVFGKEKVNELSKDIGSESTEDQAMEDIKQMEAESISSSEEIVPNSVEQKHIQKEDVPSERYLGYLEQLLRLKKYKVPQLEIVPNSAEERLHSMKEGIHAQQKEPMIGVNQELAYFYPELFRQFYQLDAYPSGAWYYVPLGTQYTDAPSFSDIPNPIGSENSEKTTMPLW

B1: PrkD (Bacillus subtilis 168 | BSU_02030) (SEQ ID NO: 7) (protein)
chain: MALKLLKKLLFDRPLKNGVILNHQYKIEECLGMGGYGLVYLCTDILAQTPYVLKQLRPTKAKKEKEKVRFQQEIKLLKNIHHPQIPGFIDEFIIDGQAYYVMQFIEGENIEELLFFRKQPFTELMALQLISQLLEIIEYLHDRLIFHSDIRTPNIIINDGRLCLIDFGLAKQLTPEEMEEIKVRKQDDFFDLGETLLFLLYSQYKGKKKKNGTWLEELTLTKEVTLLLKRLLGIEEEYQHTASIREDLNRAIQSVT
[1]
  number of phosphorylated sites similar to native phosphorylation sites, MS: with 3 sites showing similarity to native phosphorylation sites
  number of sites phosphorylated, in vitro kinase reaction, MS: PrkD and YabT phosphorylated 5 sites each
  phosphorylation at *S30 (native site), MS grade, in vitro kinase reaction: +
  phosphorylation at *S32 (native site), MS grade, in vitro kinase reaction: +
  phosphorylation at *S50 (native site), MS grade, in vitro kinase reaction: +
  phosphorylation at S337, MS grade, in vitro kinase reaction: +
  phosphorylation at T39, MS grade, in vitro kinase reaction: +
[2]
  number of phosphorylated sites similar to native phosphorylation sites, MS: with 9 and 8 sites showing similarity to native phosphorylation sites
  number of sites phosphorylated, in vitro kinase reaction, MS: PrkD and YabT phosphorylated 13 and 10 sites, respectively
  phosphorylation at *S56 (native site), MS grade, in vitro kinase reaction: ++
  phosphorylation at *S61 (native site), MS grade, in vitro kinase reaction: +
  phosphorylation at *S63 (native site), MS grade, in vitro kinase reaction: +
  phosphorylation at *S79 (native site), MS grade, in vitro kinase reaction: +
  phosphorylation at *S81 (native site), MS grade, in vitro kinase reaction: +
  phosphorylation at *S82 (native site), MS grade, in vitro kinase reaction: +
  phosphorylation at *S83 (native site), MS grade, in vitro kinase reaction: +
  phosphorylation at *S90 (native site), MS grade, in vitro kinase reaction: +
  phosphorylation at *S130 (native site), MS grade, in vitro kinase reaction: +++
  phosphorylation at S103, MS grade, in vitro kinase reaction: +
  phosphorylation at S137, MS grade, in vitro kinase reaction: +
  phosphorylation at Y159, MS grade, in vitro kinase reaction: +
  phosphorylation at Y161, MS grade, in vitro kinase reaction: +

B2: PrkC (Bacillus subtilis) (SEQ ID NO: 8) (protein)
chain: MSGPVPSRARVYTDVNTHRPREYWDYESHVVEWGNQDDYQLVRKLGRGKYSEVFEAINITNNEKVVVKILKPVKKKKIKREIKILENLRGGPNIITLADIVKDPVSRTPALVFEHVNNTDFKQLYQTLTDYDIRFYMYEILKALDYCHSMGIMHRDVKPHNVMIDHEHRKLRLIDWGLAEFYHPGQEYNVRVASRYFKGPELLVDYQMYDYSLDMWSLGCMLASMIFRKEPFFHGHDNYDQLVRIAKVLGTEDLYDYIDKYNIELDPRFNDILGRHSRKRWERFVHSENQHLVSPEALDFLDKLLRYDHQSRLTAREAMEHPYFYTVVKDQARMGSSSMPGGSTPVSSANMMSGISSVPTPSPLGPLAGSPVIAAANPLGMPVPAAAGAQ
[1]
  number of phosphorylated sites similar to native bovine phosphorylation sites, MS: 1 sites
  number of sites phosphorylated, in vitro kinase reaction, MS: PKNB and PrkC phosphorylated 2 sites in β-casein each
  phosphorylation at *S30 (native site), MS grade, in vitro kinase reaction: +
  phosphorylation at T39, MS grade, in vitro kinase reaction: ++
[2]
  number of phosphorylated sites similar to native bovine phosphorylation sites, MS: 2 sites
  number of sites phosphorylated, in vitro kinase reaction, MS: PKNB and PrkC phosphorylated 6 sites in αs1-casein each
  phosphorylation at *S56 (native site), MS grade, in vitro kinase reaction: +
  phosphorylation at *S130 (native site), MS grade, in vitro kinase reaction: +
  phosphorylation at S103, MS grade, in vitro kinase reaction: +
  phosphorylation at S137, MS grade, in vitro kinase reaction: +
  phosphorylation at Y109, MS grade, in vitro kinase reaction: +
  phosphorylation at Y159, MS grade, in vitro kinase reaction: +

B3: YabT (GenBank: SPU13583.1) (SEQ ID NO: 5) (protein)
chain: MLNWTPKLQSLSTPFAKLSTAAITPTGPAIREATLQFEKYAQEGACWQMMNDALTSLACSLKPGTTIKGKWNGNTYTLRKQLGKGANGIVYLAETSDGHVALKVSDDSLSITSEVNVLKSFSKAQSVTMGPSFFDTDDAYIPSANTKVSFYAMEYIKGPLLLKYVSDKGAEWIPVLMIQLLSSLSVLHQQGWIFGDLKPDNLIVTGPPARIRCIDVGGTTKEGRAIKEYTEFYDRGYWGYGTRKAEPSYDLFAVAMIMINSVHKKEFKKTNQPKEQLRSLIEGNPLLQKYKKALFSALNGDYQSADEMKKDMLDAGQKAAQRKQPIKASPQPATRQRQQKPRQGKITKTRYTPKQKPAKSGGLFETTLIVISVLALYFAYIIFFLI
[1]
  number of phosphorylated sites similar to native phosphorylation sites, MS: with 3 sites showing similarity to native phosphorylation sites
  number of sites phosphorylated, in vitro kinase reaction, MS: PrkD and YabT phosphorylated 5 sites each
  phosphorylation at *S30 (native site), MS grade, in vitro kinase reaction: ++
  phosphorylation at *S32 (native site), MS grade, in vitro kinase reaction: ++
  phosphorylation at *S50 (native site), MS grade, in vitro kinase reaction: ++
  phosphorylation at T39, MS grade, in vitro kinase reaction: ++
  phosphorylation at T56, MS grade, in vitro kinase reaction: +
[2]
  number of phosphorylated sites similar to native phosphorylation sites, MS: with 9 and 8 sites showing similarity to native phosphorylation sites
  number of sites phosphorylated, in vitro kinase reaction, MS: PrkD and YabT phosphorylated 13 and 10 sites, respectively
  phosphorylation at *S56 (native site), MS grade, in vitro kinase reaction: +++
  phosphorylation at *S61 (native site), MS grade, in vitro kinase reaction: ++
  phosphorylation at *S63 (native site), MS grade, in vitro kinase reaction: ++
  phosphorylation at *S79 (native site), MS grade, in vitro kinase reaction: +++
  phosphorylation at *S81 (native site), MS grade, in vitro kinase reaction: +++
  phosphorylation at *S82 (native site), MS grade, in vitro kinase reaction: +++
  phosphorylation at *S83 (native site), MS grade, in vitro kinase reaction: +++
  phosphorylation at *S90 (native site), MS grade, in vitro kinase reaction: ++
  phosphorylation at S103, MS grade, in vitro kinase reaction: +
  phosphorylation at S137, MS grade, in vitro kinase reaction: +

B4: PKNB1_Cgl2751 (Corynebacterium glutamicum) (SEQ ID NO: 9) (protein)
chain: MYEVLGVIAHGGMGWIYLANDRNVSGRIVVLKGMMAQSSVQDQGTAEAEREFLADITHPGIVKAYNFIDDPRVPGGFIVMEYVNGPSLKDRCKAQPDGVLRVDLAIGYILELLPAMDYLHQRGVVYNDLKPENVIATEDQVKLIDLGAVTGIGAFGYIYGTKGFQAPEVATHGPSISSDIFTIGRTLAALTMPLPVEDGVLAPGIPSPKNSPLLRRHLSFYRLLQRATADDPQHRFRNVSELRTQLYGVLREILAVRDGKQYPPQHSLFSPQRSTFGTKHLVF
[1]
  number of phosphorylated sites similar to native bovine phosphorylation sites, MS: 1 sites
  number of sites phosphorylated, in vitro kinase reaction, MS: PKNB and PrkC phosphorylated 2 sites in β-casein each
  phosphorylation at *S30 (native site), MS grade, in vitro kinase reaction: +
  phosphorylation at T39, MS grade, in vitro kinase reaction: +++
[2]
  number of phosphorylated sites similar to native bovine phosphorylation sites, MS: 1 sites
  number of sites phosphorylated, in vitro kinase reaction, MS: PKNB and PrkC phosphorylated 6 sites in αs1-casein each
  phosphorylation at *S130 (native site), MS grade, in vitro kinase reaction: +
  phosphorylation at S103, MS grade, in vitro kinase reaction: +
  phosphorylation at S137, MS grade, in vitro kinase reaction: +
  phosphorylation at Y109, MS grade, in vitro kinase reaction: +
  phosphorylation at Y159, MS grade, in vitro kinase reaction: +
  phosphorylation at Y188, MS grade, in vitro kinase reaction: +
